From publication PMC4497658
pEC50: −log10 of the molar value.

Biological target: IFNAR receptors (IFNAR1 and IFNAR2) on WISH cells (human (endogenous in WISH)) (UniProt P17181)
Test: radioligand binding; in situ competition on WISH cells: ^125I-labeled wild type IFNα2 (200,000 cpm/well) with unlabeled IFN at ten concentrations (4-fold steps from 200 nM for the antagonists, 10 nM for IFNα2-α8tail), 1 hr at room temperature, culture medium + 0.1% sodium azide

Substance | pEC50
IFN-1ant_(Y85M) (ligand) | 9.10
IFN-1ant_(Y85A) (ligand) | 8.70
YNS (IFNα2 N57Y, E58N and Q61S) (ligand) | 12.00

More lines, in order of rising pEC50, values ahead:

pEC50 | Substance
8.77 | IFN-1ant_(N65A) (ligand)
9.30 | IFN-1ant (IFNα2 R120E with the α8-tail) (ligand)
9.82 | IFNα2-α8tail (ligand)
